Legend:
[1] = target: GFP-CaV2.2 K-R-HA (rabbit) (UniProt Q05152)
GFP-CaV2.2-HA (rabbit) = GFP-CaV2.2-HA (rabbit) (UniProt Q05152)

## CaVβ1b-GFP (from UniProt P54283 1-597) (natural protein)
[1]
  Gmax (whole cell conductance) from Boltzmann fits, whole cell patch clamp of tsA-201 cells with CaVα2δ-1, 1 mM Ba2+: 4.5 nS/pF
  IBa current density at +5 mV, whole cell patch clamp of tsA-201 cells with CaVα2δ-1, 1 mM Ba2+: 148 pA/pF
  V50 of activation from Boltzmann fits of current density-voltage relationships, whole cell patch clamp of tsA-201 cells with CaVα2δ-1, 1 mM Ba2+: 1.3 mV
GFP-CaV2.2-HA (rabbit)
  Gmax (whole cell conductance) from Boltzmann fits, whole cell patch clamp of tsA-201 cells with CaVα2δ-1, 1 mM Ba2+: 7.7 nS/pF
  IBa current density at +5 mV, whole cell patch clamp of tsA-201 cells with CaVα2δ-1, 1 mM Ba2+: 277 pA/pF
  V50 of activation from Boltzmann fits of current density-voltage relationships, whole cell patch clamp of tsA-201 cells with CaVα2δ-1, 1 mM Ba2+: -4.7 mV
